According to patent US20230348852A1, “METHODS AND COMPOSITIONS FOR OCULAR CELL THERAPY” (NOVARTIS AG, priority 2020, published 2023):

B1: CR000442: gRNA targeting human B2M; targeting domain SEQ ID NO: 134; sgRNA SEQ ID NO: 171 (nucleic acid)
guide: GGCCACGGAGCGAGACAUCUGUUUUAGAGCUAGAAAUAGCAAGUUAAAAUAAGGCUAGUCCGUUAUCAACUUGAAAAAGUGGCACCGAGUCGGUGCUUUU
modifications: listed as RNA, chemistry not given here
B2: CR000443: gRNA targeting human B2M; targeting domain SEQ ID NO: 135; sgRNA SEQ ID NO: 172 (nucleic acid)
guide: CGCGAGCACAGCUAAGGCCAGUUUUAGAGCUAGAAAUAGCAAGUUAAAAUAAGGCUAGUCCGUUAUCAACUUGAAAAAGUGGCACCGAGUCGGUGCUUUU
modifications: listed as RNA, chemistry not given here
B3: CR000455: gRNA targeting human B2M; targeting domain SEQ ID NO: 138; sgRNA SEQ ID NO: 175 (nucleic acid)
guide: UUACCCCACUUAACUAUCUUGUUUUAGAGCUAGAAAUAGCAAGUUAAAAUAAGGCUAGUCCGUUAUCAACUUGAAAAAGUGGCACCGAGUCGGUGCUUUU
modifications: listed as RNA, chemistry not given here
B4: CR000453: gRNA targeting human B2M; targeting domain SEQ ID NO: 137; sgRNA SEQ ID NO: 174 (nucleic acid)
guide: CACAGCCCAAGAUAGUUAAGGUUUUAGAGCUAGAAAUAGCAAGUUAAAAUAAGGCUAGUCCGUUAUCAACUUGAAAAAGUGGCACCGAGUCGGUGCUUUU
modifications: listed as RNA, chemistry not given here
B5: CR000456: gRNA targeting human B2M; targeting domain SEQ ID NO: 139; sgRNA SEQ ID NO: 176 (nucleic acid)
guide: CUUACCCCACUUAACUAUCUGUUUUAGAGCUAGAAAUAGCAAGUUAAAAUAAGGCUAGUCCGUUAUCAACUUGAAAAAGUGGCACCGAGUCGGUGCUUUU
modifications: listed as RNA, chemistry not given here
B6: CR000446: gRNA targeting human B2M; targeting domain SEQ ID NO: 136; sgRNA SEQ ID NO: 173 (nucleic acid)
guide: AGGGUAGGAGAGACUCACGCGUUUUAGAGCUAGAAAUAGCAAGUUAAAAUAAGGCUAGUCCGUUAUCAACUUGAAAAAGUGGCACCGAGUCGGUGCUUUU
modifications: listed as RNA, chemistry not given here

What was measured:
[1] = system: genomic DNA purified from male human peripheral blood mononuclear cells; test: Biochemical assay for potential off-target genomic sites cleaved by Cas9 and B2M guides; details: number of potential off-target sites, guide concentration 64 nM
Description: A biochemical method (See, e.g., Cameron et al., Nature Methods. 6, 600-606; 2017) was used to determine potential off-target genomic sites cleaved by Cas9 and selected B2M guides. Guides showing B2M indel activity were tested for potential off-target genomic cleavage sites with this assay. […] The number of potential off-target sites detected using a guide concentration of 64 nM in the biochemical assay are shown in Table 10. As a result of this analysis, several gRNAs were selected for analysis of potential off-target activity in limbal stem cells.

B2M [2] = test: Targeted PCR and NGS (amplicon sequencing) of on-target and off-target sites in genome-edited LSCs; format: cell-based, human; details: for validated indels for off-target activity in LSCs: amplicon sequencing of potential off-target loci; for Number of sites positive for off-target activity in LSCs: of the potential off-target loci sequenced; for B2M purified rhAmpSeq indel: purified (B2M negative) LSC populations
Description: Potential CRISPR/Cas9-mediated cutting sites identified above were evaluated using targeted PCR and NGS in genome-edited expanded LSCs.
Selected sgRNAs (SEQ ID NO: 120, 162, 166, 167, 171, and 175) were further analyzed by amplicon sequencing in edited and non-edited cells. Primers flanking the potential off-target sites for each guide were used to detect indels by NGS analysis in edited LSCs and non-edited peripheral blood mononuclear cells. Sites that had either (1) a difference in mean indel percentage between edited and unedited cells greater than 0.5%; or (2) a p value less than 0.05 between edited and unedited indel were further analyzed. NGS sequence reads for such sites were assessed for characteristic indel patterns near the putative Cas9 cut site. Based on the results, we could assess the specificity of gRNAs and their suitability for therapeutic applications.

B2M [3] = test: sgRNA screening for B2M knockout in LSCs (nucleofection, FACS); format: cell-based, human; details: Cas9 protein SEQ ID NO: 106, LSCs at passage 3, FACS after around 3 days
Description: Cells were cultured under these conditions for 24-48 hours at 37° C. in 5% CO2.
LSCs were nuclofected with selected gRNAs (Table 6) followed by FACS analysis / MACS separation.
After scraping the cells, the reaction was stopped by using cell culture medium containing 10% Serum and transferred to a falcon tube. After counting cells using Vi-cell 300′000 cells were prepared per reaction by transferring 300′000 cells in single tubes and centrifuged at 1000 rpm for 5 min. The supernatant was aspirated using manually pipetting to avoid cell loss and the cells were resuspended in the Stem cell nucleofector solution II (Lonza, Cat #VPH-5022). Resuspend cells in nucleofector solution immediately before adding the Cas9 RNP:sgRNA mixture. To obtain the nucleofection mixture, 5 µg high concentrated (≥5 µg/µl) Cas9 protein of SEQ ID NO: 106 (volume = 0.78 µl) was mixed with 19.5 µg sgRNA of Table 6 (volume = 12.2 µl) and incubated for 20 min at room temperature. […] The Cas9 protein-guideRNA complex was added to the cell suspension and transferred to the electroporation cuvette immediately. Cells were transfected using the nucelofector device (Lonza, Amaxa Nucleofector II) and program A023. After nucleofection cells were transferred from cuvette to one well of a 24 well synthemax coated plate containing pre-warmed LSC medium including 3 µM LATS compound and 10 µM Rock inhibitor Y-27632 (Nature 1997, vol. 389, pp. 990-994). Incubate LSCs in a 5% CO2 incubator for around 3 days until cells are 90% confluent.
LSCs were treated with TryLE®Express Enzym (ThermoFisher, Cat #12605010) for 15 minutes in 5% CO2 at 37° C. After scraping the cells, the reaction was stopped by using cell culture medium containing 10% Serum and transferred to a falcon tube for a centrifugation step (1000 rpm, 5 minutes). After aspirating the medium cells were resuspended in 200 µl FACS buffer (PBS/10%FBS).
To analyze the expression of B2M and HLA-ABC, 5 µl APC mouse anti-human β2-microglobulin antibody (Biolegend, Cat#316312) and 20 µl PE mouse anti-human HLA-ABC antibody (BD Bioscience, Cat # 560168) were added to the cell suspension and incubated for 30 minutes on ice.
Cells were washed 3 times after antibody labelling with FACS buffer and resuspended in 200 µl in FACS buffer (depending on the cell number).
FACS data were analyzed using BD FACSDiva software and FlowJo software.

Molecule | off-target Site_ Count [1] | validated indels for off-target activity in LSCs (B2M [2]) | Number of sites positive for off-target activity in LSCs (B2M [2]) | Number of sites positive for off-target activity in LSCs (B2M [2]; listed as SEQ ID NO: 171) | B2M purified rhAmpSeq indel (B2M [2]) [%] | B2M purified rhAmpSeq indel (B2M [2]; listed as SEQ ID NO: 171) | B2M knockout efficiency in LSCs after nucleofection (B2M [3]) [%] | Number of sites positive for off-target activity in LSCs (B2M [2]; listed as SEQ ID NO: 175) | B2M purified rhAmpSeq indel (B2M [2]; listed as SEQ ID NO: 175)
B1 | 29 | zero | 0 of 28 | no predicted sites tested positive for off-target activity | 99.10±0.26 | ~ 99% | 62 |  | 
B2 | 117 |  |  |  |  |  | 25 |  | 
B3 | 48 | zero | 0 of 46 |  | 99.33±0.32 |  | 24 | no predicted sites tested positive for off-target activity | ~ 99%
B4 | 82 |  |  |  |  |  | 5 |  | 
B5 | 66 |  |  |  |  |  | 3 |  | 
B6 | 98 |  |  |  |  |  | 27 |  | 
